Reference: US20230416330A1, “Optimized GIP Peptide Analogues” (Antag Therapeutics ApS, priority 2019, published 2023)
Starred links: 1 amine or outer side, 2 acyl side, 3 side chain; linkers in the order of their positions; H or OH if unused. Non-standard residues stand in square brackets, D forms with d. Groups on a side chain read outwards from the residue. No end group written: not given here. *: point of attachment. C16 diacid = O=C(O)CCCCCCCCCCCCCCC(=O)*; γGlu = O=C(O)[C@H](CCC(=O)[*:2])N[*:1]; Aib = CC(C)(N)C(=O)O

B1: AT739 (peptide)
peptide: EGTFISDYSK(C16 diacid)AMDKIHQQDFVEWLLAQKPSSGAPPPS-OH
modifications: N-terminus assumed
SMILES: CC[C@H](C)[C@H](NC(=O)[C@H](CCCCN)NC(=O)[C@H](CC(=O)O)NC(=O)[C@H](CCSC)NC(=O)[C@H](C)NC(=O)[C@H](CCCCNC(=O)CCCCCCCCCCCCCCC(=O)O)NC(=O)[C@H](CO)NC(=O)[C@H](Cc1ccc(O)cc1)NC(=O)[C@H](CC(=O)O)NC(=O)[C@H](CO)NC(=O)[C@@H](NC(=O)[C@H](Cc1ccccc1)NC(=O)[C@@H](NC(=O)CNC(=O)[C@@H](N)CCC(=O)O)[C@@H](C)O)[C@@H](C)CC)C(=O)N[C@@H](Cc1c[nH]cn1)C(=O)N[C@@H](CCC(N)=O)C(=O)N[C@@H](CCC(N)=O)C(=O)N[C@@H](CC(=O)O)C(=O)N[C@@H](Cc1ccccc1)C(=O)N[C@H](C(=O)N[C@@H](CCC(=O)O)C(=O)N[C@@H](Cc1c[nH]c2ccccc12)C(=O)N[C@@H](CC(C)C)C(=O)N[C@@H](CC(C)C)C(=O)N[C@@H](C)C(=O)N[C@@H](CCC(N)=O)C(=O)N[C@@H](CCCCN)C(=O)N1CCC[C@H]1C(=O)N[C@@H](CO)C(=O)N[C@@H](CO)C(=O)NCC(=O)N[C@@H](C)C(=O)N1CCC[C@H]1C(=O)N1CCC[C@H]1C(=O)N1CCC[C@H]1C(=O)N[C@@H](CO)C(=O)O)C(C)C
B2: AT722 (peptide)
peptide: EGTFISEYSI[Aib]LEKIK([Ser-Gly-Gly-Gly-Gly-C16 diacid])QQEFVEWLLAQKPSSGAPPPS-OH
modifications: N-terminus assumed
SMILES: CC[C@H](C)[C@H](NC(=O)[C@H](CCCCN)NC(=O)[C@H](CCC(=O)O)NC(=O)[C@H](CC(C)C)NC(=O)C(C)(C)NC(=O)[C@@H](NC(=O)[C@H](CO)NC(=O)[C@H](Cc1ccc(O)cc1)NC(=O)[C@H](CCC(=O)O)NC(=O)[C@H](CO)NC(=O)[C@@H](NC(=O)[C@H](Cc1ccccc1)NC(=O)[C@@H](NC(=O)CNC(=O)[C@@H](N)CCC(=O)O)[C@@H](C)O)[C@@H](C)CC)[C@@H](C)CC)C(=O)N[C@@H](CCCCNC(=O)[C@H](CO)NC(=O)CNC(=O)CNC(=O)CNC(=O)CNC(=O)CCCCCCCCCCCCCCC(=O)O)C(=O)N[C@@H](CCC(N)=O)C(=O)N[C@@H](CCC(N)=O)C(=O)N[C@@H](CCC(=O)O)C(=O)N[C@@H](Cc1ccccc1)C(=O)N[C@H](C(=O)N[C@@H](CCC(=O)O)C(=O)N[C@@H](Cc1c[nH]c2ccccc12)C(=O)N[C@@H](CC(C)C)C(=O)N[C@@H](CC(C)C)C(=O)N[C@@H](C)C(=O)N[C@@H](CCC(N)=O)C(=O)N[C@@H](CCCCN)C(=O)N1CCC[C@H]1C(=O)N[C@@H](CO)C(=O)N[C@@H](CO)C(=O)NCC(=O)N[C@@H](C)C(=O)N1CCC[C@H]1C(=O)N1CCC[C@H]1C(=O)N1CCC[C@H]1C(=O)N[C@@H](CO)C(=O)O)C(C)C
B3: AT741 (peptide)
peptide: EGTFISDYSIAMDK(C16 diacid)IHQQDFVEWLLAQKPSSGAPPPS-OH
modifications: N-terminus assumed
SMILES: CC[C@H](C)[C@H](NC(=O)[C@H](CO)NC(=O)[C@H](Cc1ccc(O)cc1)NC(=O)[C@H](CC(=O)O)NC(=O)[C@H](CO)NC(=O)[C@@H](NC(=O)[C@H](Cc1ccccc1)NC(=O)[C@@H](NC(=O)CNC(=O)[C@@H](N)CCC(=O)O)[C@@H](C)O)[C@@H](C)CC)C(=O)N[C@@H](C)C(=O)N[C@@H](CCSC)C(=O)N[C@@H](CC(=O)O)C(=O)N[C@@H](CCCCNC(=O)CCCCCCCCCCCCCCC(=O)O)C(=O)N[C@H](C(=O)N[C@@H](Cc1c[nH]cn1)C(=O)N[C@@H](CCC(N)=O)C(=O)N[C@@H](CCC(N)=O)C(=O)N[C@@H](CC(=O)O)C(=O)N[C@@H](Cc1ccccc1)C(=O)N[C@H](C(=O)N[C@@H](CCC(=O)O)C(=O)N[C@@H](Cc1c[nH]c2ccccc12)C(=O)N[C@@H](CC(C)C)C(=O)N[C@@H](CC(C)C)C(=O)N[C@@H](C)C(=O)N[C@@H](CCC(N)=O)C(=O)N[C@@H](CCCCN)C(=O)N1CCC[C@H]1C(=O)N[C@@H](CO)C(=O)N[C@@H](CO)C(=O)NCC(=O)N[C@@H](C)C(=O)N1CCC[C@H]1C(=O)N1CCC[C@H]1C(=O)N1CCC[C@H]1C(=O)N[C@@H](CO)C(=O)O)C(C)C)[C@@H](C)CC
B4: AT740 (peptide)
peptide: EGTFISDYSIK(C16 diacid)MDKIHQQDFVEWLLAQKPSSGAPPPS-OH
modifications: N-terminus assumed
SMILES: CC[C@H](C)[C@H](NC(=O)[C@H](CCCCN)NC(=O)[C@H](CC(=O)O)NC(=O)[C@H](CCSC)NC(=O)[C@H](CCCCNC(=O)CCCCCCCCCCCCCCC(=O)O)NC(=O)[C@@H](NC(=O)[C@H](CO)NC(=O)[C@H](Cc1ccc(O)cc1)NC(=O)[C@H](CC(=O)O)NC(=O)[C@H](CO)NC(=O)[C@@H](NC(=O)[C@H](Cc1ccccc1)NC(=O)[C@@H](NC(=O)CNC(=O)[C@@H](N)CCC(=O)O)[C@@H](C)O)[C@@H](C)CC)[C@@H](C)CC)C(=O)N[C@@H](Cc1c[nH]cn1)C(=O)N[C@@H](CCC(N)=O)C(=O)N[C@@H](CCC(N)=O)C(=O)N[C@@H](CC(=O)O)C(=O)N[C@@H](Cc1ccccc1)C(=O)N[C@H](C(=O)N[C@@H](CCC(=O)O)C(=O)N[C@@H](Cc1c[nH]c2ccccc12)C(=O)N[C@@H](CC(C)C)C(=O)N[C@@H](CC(C)C)C(=O)N[C@@H](C)C(=O)N[C@@H](CCC(N)=O)C(=O)N[C@@H](CCCCN)C(=O)N1CCC[C@H]1C(=O)N[C@@H](CO)C(=O)N[C@@H](CO)C(=O)NCC(=O)N[C@@H](C)C(=O)N1CCC[C@H]1C(=O)N1CCC[C@H]1C(=O)N1CCC[C@H]1C(=O)N[C@@H](CO)C(=O)O)C(C)C
B5: AT742 (peptide)
peptide: EGTFISDYSIAMDKK(C16 diacid)HQQDFVEWLLAQKPSSGAPPPS-OH
modifications: N-terminus assumed
SMILES: CC[C@H](C)[C@H](NC(=O)[C@H](CO)NC(=O)[C@H](Cc1ccc(O)cc1)NC(=O)[C@H](CC(=O)O)NC(=O)[C@H](CO)NC(=O)[C@@H](NC(=O)[C@H](Cc1ccccc1)NC(=O)[C@@H](NC(=O)CNC(=O)[C@@H](N)CCC(=O)O)[C@@H](C)O)[C@@H](C)CC)C(=O)N[C@@H](C)C(=O)N[C@@H](CCSC)C(=O)N[C@@H](CC(=O)O)C(=O)N[C@@H](CCCCN)C(=O)N[C@@H](CCCCNC(=O)CCCCCCCCCCCCCCC(=O)O)C(=O)N[C@@H](Cc1c[nH]cn1)C(=O)N[C@@H](CCC(N)=O)C(=O)N[C@@H](CCC(N)=O)C(=O)N[C@@H](CC(=O)O)C(=O)N[C@@H](Cc1ccccc1)C(=O)N[C@H](C(=O)N[C@@H](CCC(=O)O)C(=O)N[C@@H](Cc1c[nH]c2ccccc12)C(=O)N[C@@H](CC(C)C)C(=O)N[C@@H](CC(C)C)C(=O)N[C@@H](C)C(=O)N[C@@H](CCC(N)=O)C(=O)N[C@@H](CCCCN)C(=O)N1CCC[C@H]1C(=O)N[C@@H](CO)C(=O)N[C@@H](CO)C(=O)NCC(=O)N[C@@H](C)C(=O)N1CCC[C@H]1C(=O)N1CCC[C@H]1C(=O)N1CCC[C@H]1C(=O)N[C@@H](CO)C(=O)O)C(C)C
B6: AT721 (peptide)
peptide: EGTFISEYSI[Aib]LEKIK([γGlu-C16 diacid])QQEFVEWLLAQKPSSGAPPPS-OH
modifications: N-terminus assumed
SMILES: CC[C@H](C)[C@H](NC(=O)[C@H](CCCCN)NC(=O)[C@H](CCC(=O)O)NC(=O)[C@H](CC(C)C)NC(=O)C(C)(C)NC(=O)[C@@H](NC(=O)[C@H](CO)NC(=O)[C@H](Cc1ccc(O)cc1)NC(=O)[C@H](CCC(=O)O)NC(=O)[C@H](CO)NC(=O)[C@@H](NC(=O)[C@H](Cc1ccccc1)NC(=O)[C@@H](NC(=O)CNC(=O)[C@@H](N)CCC(=O)O)[C@@H](C)O)[C@@H](C)CC)[C@@H](C)CC)C(=O)N[C@@H](CCCCNC(=O)CC[C@H](NC(=O)CCCCCCCCCCCCCCC(=O)O)C(=O)O)C(=O)N[C@@H](CCC(N)=O)C(=O)N[C@@H](CCC(N)=O)C(=O)N[C@@H](CCC(=O)O)C(=O)N[C@@H](Cc1ccccc1)C(=O)N[C@H](C(=O)N[C@@H](CCC(=O)O)C(=O)N[C@@H](Cc1c[nH]c2ccccc12)C(=O)N[C@@H](CC(C)C)C(=O)N[C@@H](CC(C)C)C(=O)N[C@@H](C)C(=O)N[C@@H](CCC(N)=O)C(=O)N[C@@H](CCCCN)C(=O)N1CCC[C@H]1C(=O)N[C@@H](CO)C(=O)N[C@@H](CO)C(=O)NCC(=O)N[C@@H](C)C(=O)N1CCC[C@H]1C(=O)N1CCC[C@H]1C(=O)N1CCC[C@H]1C(=O)N[C@@H](CO)C(=O)O)C(C)C

Target: T1, human GIP receptor (human, UniProt P48546 22-466)
T1 sequence (looked up): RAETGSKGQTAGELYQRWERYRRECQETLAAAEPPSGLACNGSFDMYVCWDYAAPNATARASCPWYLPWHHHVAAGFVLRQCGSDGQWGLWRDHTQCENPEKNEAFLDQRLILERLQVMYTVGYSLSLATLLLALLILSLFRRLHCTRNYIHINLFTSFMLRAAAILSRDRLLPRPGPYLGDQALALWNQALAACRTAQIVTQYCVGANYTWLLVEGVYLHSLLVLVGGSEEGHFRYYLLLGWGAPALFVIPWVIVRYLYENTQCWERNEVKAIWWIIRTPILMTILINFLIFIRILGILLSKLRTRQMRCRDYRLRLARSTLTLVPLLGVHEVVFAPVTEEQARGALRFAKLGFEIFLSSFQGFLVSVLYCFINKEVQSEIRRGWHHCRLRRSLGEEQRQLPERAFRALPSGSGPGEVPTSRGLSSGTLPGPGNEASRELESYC
Assay: cell-based or functional assay

| Binder | nM (Kb, Gaddum assay, cAMP) | pKb (Gaddum assay, cAMP) |
| --- | --- | --- |
| B1 | 11 nM | 7.9 |
| B2 | 0.28 nM | 9.6 |
| B3 | 11 nM | 7.9 |
| EGTFISEYSI[Aib]LEKIK([Ala-Glu-Leu-Ala-C16 diacid])QQEFVEWLLAQKPSSGAPPPS-OH [AT725] | 0.6 nM | 9.2 |
| B4 | 14 nM | 7.9 |
| B5 | 32 nM | 7.5 |
| EGTFISEYSI[Aib]LEKIK([Lys-Ala-Ala-Ala-Glu-Lys-Ala-Ala-Ala-Glu-Lys-Ala-Ala-Ala-Glu-C16 diacid])QQEFVEWLLAQKPSSGAPPPS-OH (not fully specified) [AT724] | 0.31 nM | 9.5 |
| B6 | 0.31 nM | 9.5 |
